Laboratory results reported in patent US6991794B1, “Progenitor cell preservation factors and methods for and products of their use” (ImClone Systems Incorporated, priority 1997, dated 2006).

Assays:
[1] = tested on: Flt3-expressing 3T3 cells; test: Flt3 3T3 assay during purification of Pv-FRIL; assay type: cell-based; settings: 80,000-fold purification; IL1-α or PHA-LCM as co-factor
Description: To create factor-dependence for receptor-transfected 3T3 cells, growth conditions were compromised to permit only ligands to rescue cells from death. To do this, 3T3 cell lines were assayed in 96 well plates (Becton Dickinson Labware, Lincoln Park, N.J.) containing 3,000 cells in 100 μL of serum-free medium consisting of 10% AIMV (Life Technologies) and 90% DMEM. In each experiment, samples were serially diluted two-fold across rows starting at a 1:10 dilution. Viable cells were quantitated after 3-5 days by XTT (2,3-bis[Methoxy-4-nitro-5sulfophenyl]-2H-tetrazolium-5 carboxanilide inner salt) (Sigma, St. Louis, Mo.) (Roehm et al., supra). Relative activity (units/ml) and specific activity (units/mg) are defined as the reciprocal dilution at which half-maximal stimulation of cells was detected.
Each batch of PHA-LCM was generated in serum-free medium with cells from individual normal donors. To start purification, the PHA-LCM with Flt3 3T3 activity was pooled in 30 liter lots with approximately 10^7 Flt3 3T3 units. Twenty-five liters of PHA-LCM was diafiltered into 50 mM Tris-HCl, pH 7.6, 50 mM NaCl and then concentrated to 2-2.5 liters by tangential flow ultrafiltration on a 10 kDa molecular weight cutoff membrane (Pellicon, Millipore, Bedford, Mass.). A Blue-sepharose FF (Pharmacia Biotech) column (10 cm×15 cm) was equilibrated with 50 mM Tris-HCl, pH 7.4,50 mM NaCl. […]

untransfected 3T3 cells = test: untransfected parent 3T3 control cells (XTT); assay type: cell-based; settings: Example 5 serum-free conditions
Description: Specifically, 3T3 cells cultured in tissue culture plates (Becton Dickinson Labware, Lincoln Park, N.J.) were removed from the plates by washing cells twice in Hank's buffered saline solution (HBSS; Gibco Laboratories, Grand Island, N.Y.). Non-enzymatic cell dissociation buffer (Gibco) was added for 15 minutes at room temperature. The resulting cells were washed in medium. FLT3 3T3 cells were cultured at a final concentration of 3,000 cells per well in a volume of 100 μL of serum-defined medium containing […] rhIL1-α, 10% AIMV (Gibco, Grand Island, N.Y.) and 90% Dulbecco's modification of Eagle's medium (DMEM; Gibco) in 96 well plates. […] Proliferation and cell survival was quantitated by addition of XTT (2, 3-bis[Methoxy-4-nitro-5sulfophenyl]-2H-tetrazolium-5 carboxanilide inner salt) (Diagnostic Chemicals Ltd, Charlottetown, Prince Edward Island, Canada), which is a […] cleaved by actively respiring cells (Roehm et al., J. Immunol. Methods 142: 257-265, 1991). Proliferation and cell survival was quantitated spectrophotometrically using a Vmax kinetic plate reader (Molecular Devices Corp., Mountain View, Calif.), and recorded as either relative activity (units/mL) or as specific activity (units/mg). One unit of biological activity was defined as the reciprocal dilution at which half-maximal stimulation of cells is detected. […]

B1: Pv-FRIL: FRIL family mannose-binding lectin from Phaseolus vulgaris (red kidney bean), SEQ ID NO: 6 (protein)
chain: AQSLSFNFTKFDLDQKDLIFQGDATSTNNVLQLTKLDSGGNPVGASVGRVLFSAPFHLWENSMAVSSFETNLTIQISTPHPYYAADGFAFFLAPHDTVIPPNSWGKFLGLYSNVFRNSPTSENQSFGDVNTDSRVVAVEFDTFPNANIDPNYRHIGIDVNSIKSKETARWEWQNGKTATARISYNSASKKSTVTTFYPGMEVVALSHDVDLHAELPEWVRVGLSASTGEEKQKNTIISWSFTSSLKNNEVKEPKEDMYIANVVRSYTWINDVLSYISNKMYDALNNNHKYVRCSTCMLFMKKK
specific activity of purified fraction [1]: 244,500 units/mg
response of parent untransfected 3T3 cells (untransfected 3T3 cells): did not
